# Laboratory results reported in article PMC9731866 (The Journal of Biological Chemistry, 2022).
# Target: the molecule itself
# Assay: SEC-MALS; low concentration (1 mg/ml); Superdex 200 10/300 GL, 24 °C, 10 mM Hepes pH 7.4, 200 mM NaCl, 5 mM β-ME; N counts the units (heterodimers or heterotetramers) in the oligomer
protein,measurement,value
"αMγ heterodimer of HsIDH3 (α-Q139A with γ) (complex, human, α subunit of human IDH3 (HsIDH3), Q139A; γ subunit of human IDH3 (HsIDH3); One α and one γ chain; the heterodimer is the unit that associates into the (αMγ)2 heterotetramer; also called α_(Q139A)γ; mutant αγ heterodimer; source: E. coli BL21 (DE3) Codon-Plus, co-expressed from pQlinkN-α-γ-tev-His6, purified (Ni-NTA, TEV cleavage, gel filtration); not shown: His6, C-terminal, cleaved) chain 1: TGGVQTVTLIPGDGIGPEISAAVMKIFDAAKAPIQWEERNVTAIQGPGGKWMIPSEAKESMDKNKMGLKGPLKTPIAAGHPSMNLLLRKTFDLYANVRPCVSIEGYKTPYTDVNIVTIRENTEGEYSGIEHVIVDGVVASIKLITEGASKRIAEFAFEYARNNHRSNVTAVHKANIMRMSDGLFLQKCREVAESCKDIKFNEMYLDTVCLNMVQDPSQFDVLVMPNLYGDILSDLCAGLIGGLGVTPSGNIGANGVAIFESVHGTAPDIAGKDMANPTALLLSAVMMLRHMGLFDHAARIEAACFATIKDGKSLTKDLGGNAKCSDFTEEICRRVKDLD chain 2: FSEQTIPPSAKYGGRHTVTMIPGDGIGPELMLHVKSVFRHACVPVDFEEVHVSSNADEEDIRNAIMAIRRNRVALKGNIETNHNLPPSHKSRNNILRTSLDLYANVIHCKSLPGVVTRHKDIDILIVRENTEGEYSSLEHESVAGVVESLKIITKAKSLRIAEYAFKLAQESGRKKVTAVHKANIMKLGDGLFLQCCREVAARYPQITFENMIVDNTTMQLVSRPQQFDVMVMPNLYGNIVNNVCAGLVGGPGLVAGANYGHVYAVFETATRNTGKSIANKNIANPTATLLASCMMLDHLKLHSYATSIRKAVLASMDNENMHTPDIGGQGTTSEAIQDVIRHIRVINGRAVEA",stoichiometry N,2
